Patent US12269859B2, “Synthetic immune receptors and methods of use thereof” (Angeles Therapeutics, Inc., priority 2016, dated 2025)

Tested on: target antigen-expressing cell line
Assay: Jurkat NFAT-GFP assay, coculture with target cell lines expressing the respective target antigen (summary Table 10A)
Type: cell-based, human
Set-up: key: The signs +/−, +, 2+ etc. after the name of the cell lines indicate the relative degree of positivity on the Jurkat-NFAT-GFP assay as measured by the % GFP positive cells; +: relative degree of positivity on the Jurkat-NFAT-GFP assay as measured by the % GFP positive cells; 2+: relative degree of positivity on the Jurkat-NFAT-GFP assay as measured by the % GFP positive cells
Conditions: relative % GFP positive cells; for NFAT-GFP ASSAY Positive Cell lines: NALM6: SIR-expressing Jurkat-NFAT-GFP cells cocultured with NALM6; for NFAT-GFP ASSAY Positive Cell lines: RAJI: SIR-expressing Jurkat-NFAT-GFP cells cocultured with RAJI
Summary of the method: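 Readout is % GFP+ cells by FACS, graded +/− to 2+ relative to parental reporter cells. Jurkat-NFAT-GFP cells stably transduced with SIR constructs (puromycin-selected) were mixed with target-antigen-expressing cell lines at roughly 1:2 effector:target and cocultured ~4–18 h.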

Molecule | NFAT-GFP ASSAY Positive Cell lines: NALM6 | NFAT-GFP ASSAY Positive Cell lines: RAJI
070517-H02 (protein) MALPVTALLLPLALLLHAARPLEGKPIPNPLLGLDSTGSGEDLKNVFPPEVAVFEPSKAEIAHTQKATLVCLATGFYPDHVELSWWVNGKEVHSGVCTDPQPLKEQPALNDSRYCLSSRLRVSATFWQNPRNHFRCQVQFYGLSENDEWTQDRAKPVTQIVSAEAWGRADCGITSASYHQGVLSATILYEILLGKATLYAVLVSALVLMAMVKRKDSRGRAKRSGSGATNFSLLKQAGDVEENPGPTSMALPVTALLLPLALLLHAARPDIQMTQSPSSLSASVGDRVTITCKASDHINNWLAWYQQKPGQAPKLLIYGATTLETGVPSRFSGSGSGTDYTLTISSLQPEDFATYYCQQSWNTPWTFGQGTKLEIKRGGGGSGGGGSGGGGSQVQLQQPGAELVKPGASVKMSCKASGYAFSSYWINWMKQKPGQGLEWIGQIYPGDGDTNYNGKFKGRATLTADTSSSTAYMQLSSLTSEDSAVYFCARSITTVVGCAMDYWGQGTSVTVSSTREQKLISEEDGSGIQNPDPAVYQLRDSKSSDKSVCLFTDFDSQTNVSQSKDSDVYITDKCVLDMRSMDFKSNSAVAWSNKSDFACANAFNNSIIPEDTFFPSSDVPCDVKLVEKSFETDTNLNFQNLSVIGFRILLLKVAGFNLLMTLRLWSSRAKRSGSGVKQTLNFDLLKLAGDVESNPGPSRGHMTEYKPTVRLATRDDVPRAVRTLAAAFADYPATRHTVDPDRHIERVTELQELFLTRVGLDIGKVWVADDGAAVAVWTTPESVEAGAVFAEIGPRMAELSGSRLAAQQQMEGLLAPHRPKEPAWFLATVGVSPDHQGKGLGSAVVLPGVEAAERAGVPAFLETSAPRNLPFYERLGFTVTADVEVPEGPRTWCMTRKPGA | (+) | RAJI (2+), NALM6
022817-K08 (protein) MALPVTALLLPLALLLHAARPQIVLTQSPATLSASPGEKATMTCSASSGVNYMHWYQQKPGTSPKRWIYDTDKTASGVPARFSGSGSGTSYSLTISSMEAEDAATYYCHQRGSYTFGGGTKLEIKLEEQKLISEEDLGSGEDLKNVFPPEVAVFEPSKAEIAHTQKATLVCLATGFYPDHVELSWWVNGKEVHSGVCTDPQPLKEQPALNDSRYCLSSRLRVSATFWQNPRNHFRCQVQFYGLSENDEWTQDRAKPVTQIVSAEAWGRADCGITSASYHQGVLSATILYEILLGKATLYAVLVSALVLMAMVKRKDSRGRAKRSGSGATNFSLLKQAGDVEENPGPTSMDWIWRILFLVGAATGAHSFEQVQLEQPGAEVVKPGASVKVSCKTSGYTFTSNWMHWVKQTPGKGLEWIGEIDPSDSYTNYNQKFDGKAKLTVDKSSSTAYMEVSDLTAEDSATYYCARGSNPYYYAMDYWGQGTSVTVSSTREQKLISEEDLGSGIQNPDPAVYQLRDSKSSDKSVCLFTDFDSQTNVSQSKDSDVYITDKCVLDMRSMDFKSNSAVAWSNKSDFACANAFNNSIIPEDTFFPSSDVPCDVKLVEKSFETDTNLNFQNLSVIGFRILLLKVAGFNLLMTLRLWSSRAKRSGSGVKQTLNFDLLKLAGDVESNPGPSRGHMTEYKPTVRLATRDDVPRAVRTLAAAFADYPATRHTVDPDRHIERVTELQELFLTRVGLDIGKVWVADDGAAVAVWTTPESVEAGAVFAEIGPRMAELSGSRLAAQQQMEGLLAPHRPKEPAWFLATVGVSPDHQGKGLGSAVVLPGVEAAERAGVPAFLETSAPRNLPFYERLGFTVTADVEVPEGPRTWCMTRKPGA | (+/−) | RAJI (+), NALM6
020817-U02 (protein) MALPVTALLLPLALLLHAARPLEGKPIPNPLLGLDSTGSGEDLKNVFPPEVAVFEPSKAEIAHTQKATLVCLATGFYPDHVELSWWVNGKEVHSGVCTDPQPLKEQPALNDSRYCLSSRLRVSATFWQNPRNHFRCQVQFYGLSENDEWTQDRAKPVTQIVSAEAWGRADCGITSASYHQGVLSATILYEILLGKATLYAVLVSALVLMAMVKRKDSRGRAKRSGSGATNFSLLKQAGDVEENPGPTSMALPVTALLLPLALLLHAARPDILLTQSPATLSLSPGERATLSCRASQSVDNYGISFMNWYQQKPGQPPKLLIYAASNQGSGIPSRFSGSGSGTDFTLTISSLEPEDFAMYFCQQSNEVPRTFGGGTKLEIKGGGGSGGGGSGGGGSQVQLVESGGGLVEPGGSLRLSCMSGYAFSSSWMNWVRQMPGKGLEWMGRIYPGDGDTNYNGKFKERVTITADESTSTAYMELSSLKAEDTAVYFCARSEYWGNYWAMDYWGQGTLVTVSSTREQKLISEEDGSGIQNPDPAVYQLRDSKSSDKSVCLFTDFDSQTNVSQSKDSDVYITDKCVLDMRSMDFKSNSAVAWSNKSDFACANAFNNSIIPEDTFFPSSDVPCDVKLVEKSFETDTNLNFQNLSVIGFRILLLKVAGFNLLMTLRLWSSRAKRSGSGVKQTLNFDLLKLAGDVESNPGPSRGHMTEYKPTVRLATRDDVPRAVRTLAAAFADYPATRHTVDPDRHIERVTELQELFLTRVGLDIGKVWVADDGAAVAVWTTPESVEAGAVFAEIGPRMAELSGSRLAAQQQMEGLLAPHRPKEPAWFLATVGVSPDHQGKGLGSAVVLPGVEAAERAGVPAFLETSAPRNLPFYERLGFTVTADVEVPEGPRTWCMTRKPGA | (+/−) | RAJI (+), NALM6
020717-P08 (protein) MALPVTALLLPLALLLHAARPDILLTQSPATLSLSPGERATLSCKASQNVGTNVAWYQQKPGQPPKLLIYSATYRNSGIPARFSGSGSGTEFTLTITNVQSKDLADYFYFCQYNRYPYTSGGGTKLEIKRLEGKPIPNPLLGLDSTGSGEDLKNVFPPEVAVFEPSKAEIAHTQKATLVCLATGFYPDHVELSWWVNGKEVHSGVCTDPQPLKEQPALNDSRYCLSSRLRVSATFWQNPRNHFRCQVQFYGLSENDEWTQDRAKPVTQIVSAEAWGRADCGITSASYHQGVLSATILYEILLGKATLYAVLVSALVLMAMVKRKDSRGRAKRSGSGATNFSLLKQAGDVEENPGPTSMDWIWRILFLVGAATGAHSFEQVQLVESGGGLVEPGGSLRLSCMSGYAFSSYWMNWVRQMPGKGLEWMGQIYPGDGDTNYNGKFKGRVTITADESTSTAYMELSSLKAEDTAVYFCARKTISSVVDFYFDNWGQGTLVTVSSAEPKSPDKTHTCPPCPKDPKTREQKLISEEDLGSGIQNPDPAVYQLRDSKSSDKSVCLFTDFDSQTNVSQSKDSDVYITDKCVLDMRSMDFKSNSAVAWSNKSDFACANAFNNSIIPEDTFFPSSDVPCDVKLVEKSFETDTNLNFQNLSVIGFRILLLKVAGFNLLMTLRLWSSRAKRSGSGVKQTLNFDLLKLAGDVESNPGPSRGHMTEYKPTVRLATRDDVPRAVRTLAAAFADYPATRHTVDPDRHIERVTELQELFLTRVGLDIGKVWVADDGAAVAVWTTPESVEAGAVFAEIGPRMAELSGSRLAAQQQMEGLLAPHRPKEPAWFLATVGVSPDHQGKGLGSAVVLPGVEAAERAGVPAFLETSAPRNLPFYERLGFTVTADVEVPEGPRTWCMTRKPGA | – | RAJI (+)
070517-G02 (protein) MALPVTALLLPLALLLHAARPLETPFPSLAPPIMLLVDGKQQMVVVCLVLDVAPPGLDSPIWFSAGNGSALDAFTYGPSPATDGTWTNLAHLSLPSEELASWEPLVCHTGPGAEGHSRSTQPMHLSGEASTARTCPQEPLRGTPGGALWLGVLRLLLFKLLLFDLLLTCSCLCDPAGPLPSPATTTRLRALGSHRLHPATETGGREATSSPRPQPRDRRWGDTPPGRKPGSPVRAKRSGSGVKQTLNFDLLKLAGDVESNPGPTSTMALPVTALLLPLALLLHAARPDIQMTQSPSSLSASVGDRVTITCKASDHINNWLAWYQQKPGQAPKLLIYGATTLETGVPSRFSGSGSGTDYTLTISSLQPEDFATYYCQQSWNTPWTFGQGTKLEIKRGGGGSGGGGSGGGGSQVQLQQPGAELVKPGASVKMSCKASGYAFSSYWINWMKQKPGQGLEWIGQIYPGDGDTNYNGKFKGRATLTADTSSSTAYMQLSSLTSEDSAVYFCARSITTVVGCAMDYWGQGTSVTVSSTRGKPIPNPLLGLDSTGSGEDLKNVFPPEVAVFEPSEAEISHTQKATLVCLATGFYPDHVELSWWVNGKEVHSGVCTDPQPLKEQPALNDSRYCLSSRLRVSATFWQNPRNHFRCQVQFYGLSENDEWTQDRAKPVTQIVSAEAWGRADCGFTSESYQQGVLSATILYEILLGKATLYAVLVSALVLMAMVKRKDSRGRAKRSGSGATNFSLLKQAGDVEENPGPSRGHMTEYKPTVRLATRDDVPRAVRTLAAAFADYPATRHTVDPDRHIERVTELQELFLTRVGLDIGKVWVADDGAAVAVWTTPESVEAGAVFAEIGPRMAELSGSRLAAQQQMEGLLAPHRPKEPAWFLATVGVSPDHQGKGLGSAVVLPGVEAAERAGVPAFLETSAPRNLPFYERLGFTVTADVEVPEGPRTWCMTRKPGA | (+/−) | RAJI (+), NALM6
012617-O05 (protein) MALPVTALLLPLALLLHAARPLEGKPIPNPLLGLDSTGSGEDLKNVFPPEVAVFEPSKAEIAHTQKATLVCLATGFYPDHVELSWWVNGKEVHSGVCTDPQPLKEQPALNDSRYCLSSRLRVSATFWQNPRNHFRCQVQFYGLSENDEWTQDRAKPVTQIVSAEAWGRADCGITSASYHQGVLSATILYEILLGKATLYAVLVSALVLMAMVKRKDSRGRAKRSGSGATNFSLLKQAGDVEENPGPTSMALPVTALLLPLALLLHAARPDILLTQSPATLSLSPGERATLSCKASQNVGTNVAWYQQKPGQPPKLLIYSATYRNSGIPARFSGSGSGTEFTLTITNVQSKDLADYFYFCQYNRYPYTSGGGTKLEIKRGGGGSGGGGSGGGGSQVQLVESGGGLVEPGGSLRLSCMSGYAFSSYWMNWVRQMPGKGLEWMGQIYPGDGDTNYNGKFKGRVTITADESTSTAYMELSSLKAEDTAVYFCARKTISSVVDFYFDNWGQGTLVTVSSTREQKLISEEDGSGIQNPDPAVYQLRDSKSSDKSVCLFTDFDSQTNVSQSKDSDVYITDKCVLDMRSMDFKSNSAVAWSNKSDFACANAFNNSIIPEDTFFPSSDVPCDVKLVEKSFETDTNLNFQNLSVIGFRILLLKVAGFNLLMTLRLWSSRAKRSGSGVKQTLNFDLLKLAGDVESNPGPSRGHMTEYKPTVRLATRDDVPRAVRTLAAAFADYPATRHTVDPDRHIERVTELQELFLTRVGLDIGKVWVADDGAAVAVWTTPESVEAGAVFAEIGPRMAELSGSRLAAQQQMEGLLAPHRPKEPAWFLATVGVSPDHQGKGLGSAVVLPGVEAAERAGVPAFLETSAPRNLPFYERLGFTVTADVEVPEGPRTWCMTRKPGA | – | RAJI (+/−)
